Patent US11872270B2, “A*03 restricted peptides for use in immunotherapy against cancers and related methods” (Immatics Biotechnologies GmbH, priority 2018, dated 2024)

Biological target: HLA-A*03:01 (Homo sapiens, UniProt P04439)
Assay: MHC binding assay (UV-ligand exchange, β2m ELISA)
Conditions: for Peptide exchange (MHC class I binding score, peptide exchange yield): binding to HLA-A*03:01, UV-ligand exchange, β2m ELISA
Source text: Candidate peptides for T cell based therapies according to the present invention were further tested for their MHC binding capacity (affinity). The individual peptide-MHC complexes were produced by UV-ligand exchange, where a UV-sensitive peptide is cleaved upon UV-irradiation and exchanged with the peptide of interest as analyzed. Only peptide candidates that can effectively bind and stabilize the peptide-receptive MHC molecules prevent dissociation of the MHC complexes. To determine the yield of the exchange reaction, an ELISA was performed based on the detection of the light chain (β2m) of stabilized MHC complexes. The assay was performed as generally described in Rodenko et al. (Rodenko et al., 2006) 96 well MAXISorp plates (NUNC) were coated over night with 2 ug/ml streptavidin in PBS at room temperature, washed 4× and blocked for 1 h at 37° C. in 2% BSA containing blocking buffer. Refolded HLA-A*02:01/MLA-001 monomers served as standards, covering the range of 15-500 ng/ml. Peptide-MHC monomers of the UV-exchange reaction were diluted 100-fold in blocking buffer. Samples were incubated for 1 h at 37° C., washed four times, incubated with 2 ug/ml HRP conjugated anti-β2m for 1 h at 37° C., washed again and detected with TMB solution that is stopped with […]. Absorption was measured at 450 nm. Candidate peptides that show a high exchange yield (preferably higher than 50%, most preferred higher than 75%) are generally preferred for a generation and production of antibodies or fragments thereof, and/or T cell receptors or fragments thereof, as they show sufficient avidity to the MHC molecules and prevent dissociation of the MHC complexes.

Peptide exchange (MHC class I binding score, peptide exchange yield) | binding to HLA-A*03 | Substance
++++ (>75% = ++++) |  | 164 (RLAQYTIER; listed as Homo sapiens) [compound 164]
++++ (>75% = ++++) |  | 272 (AVCGGVLVH; listed as Homo sapiens) [compound 272]
+ (>10% = +) |  | 152 (KIICGVHYLY; listed as Homo sapiens) [compound 152]
+++ (>50 = +++) |  | 175 (VIGTTSSPK; listed as Homo sapiens) [compound 175]
+++ (>50 = +++) |  | 172 (SLLEADPFLK; listed as Homo sapiens) [compound 172]
++++ (>75% = ++++) |  | 146 (TLLSYELAFK; listed as Homo sapiens) [compound 146]
++++ (>75% = ++++) |  | 204 (VAFIPLSNK; listed as Homo sapiens) [compound 204]
+++ (>50 = +++) |  | 258 (QVRDTLKIVFK; listed as Homo sapiens) [compound 258]
+++ (>50 = +++) |  | 218 (KAFNQSSIFTK; listed as Homo sapiens) [compound 218]
++++ (>75% = ++++) |  | 252 (AVYNYPEGAAY; listed as Homo sapiens) [compound 252]
++++ (>75% = ++++) |  | 206 (RLYEMILQR; listed as Homo sapiens) [compound 206]
+++ (>50 = +++) |  | 151 (KVASFTVIGY; listed as Homo sapiens) [compound 151]
++++ (>75% = ++++) |  | 190 (RSKWSNVFK; listed as Homo sapiens) [compound 190]
++++ (>75% = ++++) |  | 222 (RSNPYFQNK; listed as Homo sapiens) [compound 222]
++++ (>75% = ++++) |  | 210 (KIFQGQINK; listed as Homo sapiens) [compound 210]
++++ (>75% = ++++) |  | 201 (KVADFGLARLLK; listed as Homo sapiens) [compound 201]
++++ (>75% = ++++) |  | 169 (ATNGKVLKKR; listed as Homo sapiens) [compound 169]
++++ (>75% = ++++) |  | 226 (RVWLGKHYK; listed as Homo sapiens) [compound 226]
++++ (>75% = ++++) |  | 254 (SVLDKLLFH; listed as Homo sapiens) [compound 254]
+++ (>50 = +++) |  | 193 (IVYPSATDKTK; listed as Homo sapiens) [compound 193]
+++ (>50 = +++) |  | 253 (KLSLSHKK; listed as Homo sapiens) [compound 253]
++++ (>75% = ++++) |  | 176 (RLYDAYVNR; listed as Homo sapiens) [compound 176]
++ (>20% = ++) |  | 188 (SSLPRAFQK; listed as Homo sapiens) [compound 188]
++++ (>75% = ++++) |  | 158 (RALGVPFVPR; listed as Homo sapiens) [compound 158]
++++ (>75% = ++++) |  | 271 (RLPLRVVKH; listed as Homo sapiens) [compound 271]
+++ (>50 = +++) |  | 256 (AVIGALLAVGATK; listed as Homo sapiens) [compound 256]
++++ (>75% = ++++) |  | 195 (KLQAKVLQY; listed as Homo sapiens) [compound 195]

Further lines, the substance ahead of its results:

Substance | Peptide exchange (MHC class I binding score, peptide exchange yield) | binding to HLA-A*03
44 (HAFPPGPNY; listed as Homo sapiens) [compound 44] | + (>10% = +) | 
68 (KGPMAGILAY; listed as Homo sapiens) [compound 68] | ++ (>20% = ++) | 
111 (ATSPPASVR; listed as Homo sapiens) [compound 111] | ++++ (>75% = ++++) | 
83 (KLADSVMAGK; listed as Homo sapiens) [compound 83] | ++++ (>75% = ++++) | 
66 (RVKEIVINK; listed as Homo sapiens) [compound 66] | +++ (>50 = +++) | 
36 (QIRAELMKK; listed as Homo sapiens) [compound 36] | ++++ (>75% = ++++) | 
109 (KLQNLPTLLY; listed as Homo sapiens) [compound 109] | +++ (>50 = +++) | 
76 (IINESLLFY; listed as Homo sapiens) [compound 76] | +++ (>50 = +++) | 
96 (RAVSVNPGK; listed as Homo sapiens) [compound 96] | + (>10% = +) | 
30 (ILDSSLLK; listed as Homo sapiens) [compound 30] | ++ (>20% = ++) | 
55 (RLSAESKDLLK; listed as Homo sapiens) [compound 55] | +++ (>50 = +++) | 
137 (TVYVAMCHKF; listed as Homo sapiens) [compound 137] | ++++ (>75% = ++++) | 
6 (SIFGLAPGK; listed as Homo sapiens) [compound 6] | ++++ (>75% = ++++) | 
91 (IMKRQVKCITK; listed as Homo sapiens) [compound 91] | + (>10% = +) | 
18 (RLYYSFKNITK; listed as Homo sapiens) [compound 18] | ++++ (>75% = ++++) | 
73 (RCFSGPYLNK; listed as Homo sapiens) [compound 73] | ++++ (>75% = ++++) | 
98 (VSVAGSILAK; listed as Homo sapiens) [compound 98] | ++ (>20% = ++) | 
40 (ALNDRFAGY; listed as Homo sapiens) [compound 40] | +++ (>50 = +++) | 

Substance | Peptide exchange (MHC class I binding score, peptide exchange yield) | binding to HLA-A*03
117 (TVFVELWLK; listed as Homo sapiens) [compound 117] | ++ (>20% = ++) | 
138 (VSLSKMLKK; listed as Homo sapiens) [compound 138] | +++ (>50 = +++) | 
7 (RLVELAGQSLLK; listed as Homo sapiens) [compound 7] | ++++ (>75% = ++++) | 
101 (HMDEFKRTQK; listed as Homo sapiens) [compound 101] | +++ (>50 = +++) | 
47 (ALFGNALVFY; listed as Homo sapiens) [compound 47] | ++++ (>75% = ++++) | 
70 (VTAVASLLK; listed as Homo sapiens) [compound 70] | ++++ (>75% = ++++) | 
65 (RTIEELQNK; listed as Homo sapiens) [compound 65] | +++ (>50 = +++) | 
120 (TRMQKAGFLYY; listed as Homo sapiens) [compound 120] | ++ (>20% = ++) | 
62 (GIFPKIMPK; listed as Homo sapiens) [compound 62] | ++++ (>75% = ++++) | 
28 (STLECILYK; listed as Homo sapiens) [compound 28] | ++++ (>75% = ++++) | 
16 (KVFAEHKISY; listed as Homo sapiens) [compound 16] | +++ (>50 = +++) | 
128 (KIKKPLSYR; listed as Homo sapiens) [compound 128] | ++++ (>75% = ++++) | 
RLPLRVVKH (listed as Homo sapiens) [SEQ ID NO: 271] |  | binds to HLA-A*03
19 (ALAAKLEVK; listed as Homo sapiens) [compound 19] | ++++ (>75% = ++++) | 
94 (GMTLLCEALK; listed as Homo sapiens) [compound 94] | ++ (>20% = ++) | 
72 (KLYPQCLQK; listed as Homo sapiens) [compound 72] | ++++ (>75% = ++++) | 
3 (LLYGNGPGYVLK; listed as Homo sapiens) [compound 3] | ++++ (>75% = ++++) | 
58 (VLYRPQLEK; listed as Homo sapiens) [compound 58] | ++++ (>75% = ++++) | 
